# PMC3393700, “Localization and Sub-Cellular Shuttling of HTLV-1 Tax with the miRNA Machinery” (PLoS ONE, 2012)
# B1: Drosha (endogenous, 293T cell lysate) (enzyme, human (endogenous in 293T), UniProt Q9NRR4 1-1374, looked up)
# chain: MMQGNTCHRMSFHPGRGCPRGRGGHGARPSAPSFRPQNLRLLHPQQPPVQYQYEPPSAPSTTFSNSPAPNFLPPRPDFVPFPPPMPPSAQGPLPPCPIRPPFPNHQMRHPFPVPPCFPPMPPPMPCPNNPPVPGAPPGQGTFPFMMPPPSMPHPPPPPVMPQQVNYQYPPGYSHHNFPPPSFNSFQNNPSSFLPSANNSSSPHFRHLPPYPLPKAPSERRSPERLKHYDDHRHRDHSHGRGERHRSLDRRERGRSPDRRRQDSRYRSDYDRGRTPSRHRSYERSRERERERHRHRDNRRSPSLERSYKKEYKRSGRSYGLSVVPEPAGCTPELPGEIIKNTDSWAPPLEIVNHRSPSREKKRARWEEEKDRWSDNQSSGKDKNYTSIKEKEPEETMPDKNEEEEEELLKPVWIRCTHSENYYSSDPMDQVGDSTVVGTSRLRDLYDKFEEELGSRQEKAKAARPPWEPPKTKLDEDLESSSESECESDEDSTCSSSSDSEVFDVIAEIKRKKAHPDRLHDELWYNDPGQMNDGPLCKCSAKARRTGIRHSIYPGEEAIKPCRPMTNNAGRLFHYRITVSPPTNFLTDRPTVIEYDDHEYIFEGFSMFAHAPLTNIPLCKVIRFNIDYTIHFIEEMMPENFCVKGLELFSLFLFRDILELYDWNLKGPLFEDSPPCCPRFHFMPRFVRFLPDGGKEVLSMHQILLYLLRCSKALVPEEEIANMLQWEELEWQKYAEECKGMIVTNPGTKPSSVRIDQLDREQFNPDVITFPIIVHFGIRPAQLSYAGDPQYQKLWKSYVKLRHLLANSPKVKQTDKQKLAQREEALQKIRQKNTMRREVTVELSSQGFWKTGIRSDVCQHAMMLPVLTHHIRYHQCLMHLDKLIGYTFQDRCLLQLAMTHPSHHLNFGMNPDHARNSLSNCGIRQPKYGDRKVHHMHMRKKGINTLINIMSRLGQDDPTPSRINHNERLEFLGDAVVEFLTSVHLYYLFPSLEEGGLATYRTAIVQNQHLAMLAKKLELDRFMLYAHGPDLCRESDLRHAMANCFEALIGAVYLEGSLEEAKQLFGRLLFNDPDLREVWLNYPLHPLQLQEPNTDRQLIETSPVLQKLTEFEEAIGVIFTHVRLLARAFTLRTVGFNHLTLGHNQRMEFLGDSIMQLVATEYLFIHFPDHHEGHLTLLRSSLVNNRTQAKVAEELGMQEYAITNDKTKRPVALRTKTLADLLESFIAALYIDKDLEYVHTFMNVCFFPRLKEFILNQDWNDPKSQLQQCCLTLRTEGKEPDIPLYKTLQTVGPSHARTYTVAVYFKGERIGCGKGPSIQQAEMGAAMDALEKYNFPQMAHQKRFIERKYRQELKEMRWEREHQEREPDETEDIKK
# Key:
# [1] = target: Tax deletion mutant TD1 (Δ1–37) (HTLV-1, UniProt P03409 38-353); assay: cell-based or functional assay
# [2] = target: Tax deletion mutant TD55 (Δ55–92) (HTLV-1, UniProt P03409 1-353, Δ55–92); assay: cell-based or functional assay
binder,measurement,setting,value
B1,"miR326 expression (quantiMiR PCR, normalized to U6, relative to mock) in 293T cells transfected with the Tax mutant",[1],1.5 fold
same,"miR326 expression (quantiMiR PCR, normalized to U6, relative to mock) in 293T cells transfected with the Tax mutant",[2],4 fold
